Here are results for 14 molecules from US20260234236A1 (INTERVET, published 2026).

T1: Canine IL-4 with C-terminal Avi-HIS tag (canine, biotin label when loaded on SA biosensors (Example 4); site not stated)
T1 construct: also called cIL-4; biotinylated avitag-cIL-4
T1 chain: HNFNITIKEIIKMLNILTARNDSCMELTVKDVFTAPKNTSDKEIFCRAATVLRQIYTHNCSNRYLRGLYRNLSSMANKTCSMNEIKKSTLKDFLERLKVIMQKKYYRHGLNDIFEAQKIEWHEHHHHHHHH

T2: Canine IL-13 with C-terminal Avi-HIS tag (canine, biotin label when loaded on SA biosensors (Example 4); site not stated)
T2 construct: also called cIL-13; biotinylated avitag-cIL13
T2 chain: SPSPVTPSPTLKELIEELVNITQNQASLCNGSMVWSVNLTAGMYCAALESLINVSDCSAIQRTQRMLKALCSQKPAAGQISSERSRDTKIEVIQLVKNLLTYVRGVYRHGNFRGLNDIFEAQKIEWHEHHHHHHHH

B1: IL4 P4A-2 D11 scFv (scFv)
scFv: QAVLTQPPSVSAALGQRVTISCSGSTDNVGTVGASWYQHLPGRAPKLLVYIVGDRPSGVPDRFSGSKSGTSATLTITGLQAEDEADYYCSSWDDSLRGIVFGGGTHLTVLGGGSSRSSSSGGGGSGGGGEEQLVEFGGDLVKPGESLRLSCVASGFTFNKYDMSWVRQAPGKGLQWVATVADDESFAYYTDSVKGRFTISRDNAKNTLYLQMNSLRAEDTAMYYCVGKTGSYWDIDFDLWGPGTLVTISSASTTAPSVTSGQAGQ
notes: scFv purified from E. coli periplasm on Ni-NTA
B2: IL4 P4-1 A10 scFv (scFv)
scFv: QSVLNQLPSVSGSLGQKVTIRCSGNTDNIGMVGAAWYRQVPGEAPKLLLYSDGNRPSGVPDRFSGSDSGRSATLTITGLQPEDEADYYCQSLDPTVPGNYLFGSGTQLTILGGGSSRSSSSGGGGSGGGGEVQLVESGGDLVKPGGSLRLSCVASGFTFSDYDMTWVRQAPGKGLQWVADINNGGSSTTYADAVKGRFTISRDNAKNTLYLQMNSLRAEDTAMYYCAKEGDNTWLSFDSWGQGTLVTVSSESPSPPNLTSGQAGQ
notes: as for B1
B3: IL4 P3-1 C4 5LC scFv (scFv)
scFv: QAVLNQPASVSGSLGQRVTISCSGSTNNIGVVGASWYQQFPGKAPKLLVYSDGDRPSGVPDRFSGSNSGYSDTLTITGLQAEDEADYYCQSFDTTLNAYVFGSGTQLTVLGGGSSRSSSSGGGGSGGGGEVPLVESGGDLVKPGGSLRISCVASGITFNNDDMGWVRQAPGKGLQWLAEISSSGTSTYYADAVKGRFTISRDNAKNTVYLQMNSLKAEDTGVYYCVGEDGYMALGFWGQGTLVTVSSASTTAPSVTSGQAGQ
B4: IL4 P3-1 B10 scFv (scFv)
scFv: QSVLTQPTSVSAALGQRVTISCTGSNANIGSVYDVQWYQQLPGKSPKTIIYGNTHRPSGVPVRFSGSKSGSTATLTITGIQAEDEADYYCQSYDATLHYVFGSGTQLTVLGGGSSRSSSSGGGGSGGGGEVQLVESGGDLVKPGGSLRLSCVASGFTFSNYDMSWVRQAPGKGLQWVSTISYDGNNTYYSDAVKGRFTISRDNARNTLYLQMNSLRAEDTAVYYCAKEFDIPWDNFDYWGQGTLVTVSSASTTAPSVTSGQAGQ
notes: as for B1
B5: IL4 P3-1 B9 scFv (scFv)
scFv: QAVLTQPASVSAALGQRVTISCTGTATNVGGGYDVQWYQQFPGRPPKTIIYGNYNRPSGVPDRFSASTSGTTATLTITGIQVADEADYYCQSFDTTFNGHVFGAGTQLTILGGGSSRSSSSGGGGSGGGGELQLVELGGDLVKPGGSLRLSCVASGFTFSSYGMSWVRQSPGKGLQWVADISSSGSTYYADAVKGRFTISRDNAKSTLYLQMNSLRAEDTAVYYCAKAGYGSYYDFGMDYWGHGTSVFVSSESPSPPNLTSGQAGQ
notes: as for B1
B6: IL4 P4A-1 E10 scFv (scFv)
scFv: QSVLNQPPSVSAALGQRVTVSCTGTDTNIGSGYDVQWYQQVPGKSPTPIIYGNTNRPSGVPERFSGSKSGNTATLTITGIQAEDEADYYCQSFDDNVDGYVFGSGTQLTILGGGSSRSSSSGGGGSGGGGEVPLVESGGDLVKPGGSLRLSCVASGFTFSDYHMSWVRQAPGKGLQWVADISSSGSTYYADAVKGRFTISRDNAKNTLYLQMNSLRAEDTAVYYCARQWGEFDYWGQGTLVTVSSESPSPPNLTSGQAGQ
notes: as for B1
B7: IL4 P3-1 D7 scFv (scFv)
scFv: QSMLTQPASVSGSLGQRVAISCSGSTNNIGIFGATWYQHLPGKAPKFLLYSDGNRPSGVPDRFSGSDSGNSVTLMITALQAEDEADYYCQSFDTTLGAYVFGSGTQLTILGGGSSRSSSSGGGGSGGGGEVQLVQSGGDLVKPGGSLRLSCVASGFAFNGYDMDWVRLAPGKGLQWLSEISSSGSPTYYADAVEGRFTISRDNAKNTLYLQMDSLRAEDTAVYYCARAGEYTYGYEGYYFDYWGQGTLVTVSSASTTAPSVTSGQAGQ
notes: as for B1
B8: IL4 P3-1 A6 scFv (scFv)
scFv: QPVLTQPPSVSAALGQRVTISCNTNIGSPYDVQWYQQLPGKSPKTIIYGNSNRPSGVPVRFSGSKSGSTATLTIAGIQAEDEADYYCQSYDDNVDGYVFGSGTQLTVLGGGSSRSSSSGGGGSGGGGEVPLVESGGDLVKPGGSLRLSCVASGFTFHNYDLSWIRQLPGGGLQWVADIDKSGLTFYADAVKGRFTISRDNAKNTLYLQMNSLRAEDTAVYYCATWPLGSWYTETFEYWGQGTLVTVSSASTTAPSVTSGQAGQ
notes: as for B1
B9: IL4 P4A-2 G11 scFv (scFv)
scFv: DIVMTQTPLSLSVSPGEPASISCKASQSLLYSDGNTYLYWFRQKPGQSPQRLISLVSNRDAGVPDRFSGSGSGTDFTLRISRVEADDAGVYYCGQGIQDPITFGKGTHLEIKGGSSRSSSSGGGGSGGGGEVPLVESGGDLVKPGGSLRLSCVASGFPFRSYGMNWVRQSPGGGLQWVAGILFDGSATAYADAVRGRFTISRDNAKNTLYLQMNSLRAEDTAVYYCASDDGSYIEAYNWFYYWGQGTLVTVSSASTTAPSVTSGQAGQ
notes: as for B1
B10: IL4 P4-1 G3 scFv (scFv)
scFv: QSVLNQLPSLSMNMGETATFTCEGDNIGHKYVNWYQQKPGQAPVLTIYEDNKRPSGIPERFSGSNSGNTATLTISGARAEDEADYYCESEVSTGIVFGGGTHLTVLGGGSSRSSSSGGGGSGGGGEVQLVESGGDLVKPGGSLRLSCVASGFTFSSYDMDWVRQAPGKGLEWLSEISTNGDRTHYADAVKGRFAISRDNAKNTVYLQMNSLRAEDTAIYYCVRDGYEYLAFDYWGQGTLVTVSSASTTAPSVTSGQAGQ
notes: as for B1
B11: IL4 P4A-1 A4 scFv (scFv)
scFv: SYVLSQPPSVSVTPSETAHITCGGNNIGSKYVQWIRQSAGQAPVTIIYGNTNRPTGIPERFSGANSGNTATLTISGVLAEDEADYYCQVGDTDTTVFGGGTHLTVLGGGSSRSSSSGGGGSGGGGEVQLVESGGDLVKPGGSLRLSCVASGFNFSRYSMSWVRQAPEKGLQLVAAVNSGGSRTWYADAVQGRFTVSRDNAKNTLFLEMSSLKLEDTAMYYCAKDLWSTTIAEYDYWGQGTLVTVSSASTTAPSVTSGQAGQ
notes: as for B1
B12: IL4 P4A-1 F10 scFv (scFv)
scFv: QTVVTQEPSLSVSPGGTVTLTCGLSSGSVSTGNYPGWYQQTQGRAPRSIIYDTNSRPSGVPDRFSGSISGNKAVLTITGAQPEDEADYYCSLYTGIAYTDVVFGGGTHLTVLGGGSSRSSSSGGGGSGGGGEVQLVQSGGDLVKPAGSLRLSCVASGFTFNSYAMSWVRQAPGKGLQWVAGINSGGSTTTYADAVKGRFTISRDNAKNTLYLQMNSLRAEDTAVYYCAKDQNSYYPSDTFEYWGQGTLVTVSSESPSPPNLTSGQAGQ
notes: as for B1
B13: IL13 P4A-2 E11 scFv (scFv)
scFv: QSALTQTASVSGSLGQRVTISCTGATRNVGTVGVTWYQQVPGKAPKLLLFSNGDRPSWVPDRFSGSTSGYSATLIINGVQAEDEAMYHCQSFDTMPDAHYMFGSGTQLTVLGGGSSRSSSSGGGGSGGGGELTLQESGPGLVKPSQTLSLTCVVSGASVTSTNYWNWIRQRPGRGLEWMGYWTGSTKYNPAFQGRISITADTAKNQFSLQLSSMTTEDTAVYYCARSSTWINGFDYWGQGTLVTVSSESPSPPNLTSGQAGQ
notes: as for B1
B14: IL13 P2-1 H5 scFv (scFv)
scFv: QSVLNQPPSVSAALGQRVTISCTGTNTNIGSGYSVQWYQQLPGESPKPIIYGSSNRPSGVPARFSGSKSGSTGTLTITGIQAEDEADYHCQSYDDSLDGHAVFGGGTQLTVLGGGSSRSSSSGGGGSGGGGEVQLVQSGGDLVKPGGSLRLSCVASGFTFSGYDMSWVRQSPGKGLQWVATVWSDGNTIYYADAVKGRFTISRDNAKNTVYLQMNSLRAEDTAMYYCAKSPYCTDDYCPWGDYLDLWGQGTLVTVSSASTTAPSVTSGQAGQ
notes: as for B1

In one experiment the target is T1, Canine IL-4 with C-terminal Avi-HIS tag. Briefly: BLI (OCTET HTX); biotin-cIL-4 on SA biosensors, scFv in solution; 1:1 model. The protocol:
(§1) The in vitro binding of anti-canine IL-4 scFv and IL-13 scFv to canine IL-4 and canine IL-13, respectively, was determined by OCTET HTX using SA biosensors and Data Acquisition 12.0 software. First, biotin-labeled antigen (cIL-4 or cIL-13) was loaded onto the pre-rehydrated SA biosensors for 60 seconds (60s) at a concentration of 5 μg/mL. Second, the biosensors were placed into the OCTET Kinetics Buffer (PBS+0.02% Tween20, 0.1% BSA) for the blocking phase for 120s. Third, for the association phase, cIL-4 or cIL-13 antigen loaded biosensors were placed into 2-fold serial dilutions from 500 nM down to 7.8 nM of anti-cIL-4 or anti-cIL-13 scFvs, respectively, in OCTET Kinetics Buffer for 60s. The last well was buffer alone and that sensor was used for reference sensor subtraction. Finally, the biosensors were placed into OCTET Kinetics Buffer for the dissociation phase for 300s. The analysis was performed using Data Analysis 12.0 software and curves were fitted using a 1:1 binding model.
B1: the Kd (as a rule, a measure of binding affinity in units of concentration) amounted to 4.38 nM; the koff (usually the rate constant with which the complex falls apart) amounted to 0.00775 s⁻¹; the association rate constant (kon) – broadly, the rate constant with which the complex forms – is 1.52e+06 M⁻¹ s⁻¹.
Turning to B2, binding was put at a Kd of 9.92 nM, the koff is 0.011 s⁻¹ and the kon worked out at 954000 M⁻¹ s⁻¹.
B3 registered a Kd of 4.13 nM, a koff of 0.000547 s⁻¹ and a kon of 132000 M⁻¹ s⁻¹.
As to B4, the Kd worked out at 4.57 nM, the koff came out at 0.00522 s⁻¹ and the kon was determined as 1.14e+06 M⁻¹ s⁻¹.
With B5, the dissociation constant (Kd) came out at 4.5 nM, the koff came out at 0.00108 s⁻¹ and the kon came out at 241000 M⁻¹ s⁻¹.
B6 registered a Kd of 10.3 nM, a koff of 0.00173 s⁻¹ and a kon of 194000 M⁻¹ s⁻¹.
With B7, the Kd came to 17.5 nM, the koff was determined as 0.00729 s⁻¹ and the association rate constant (kon) is 391000 M⁻¹ s⁻¹.
In the case of B8, the affinity, expressed as Kd, was 1.24 nM; the koff came out at 0.000272 s⁻¹; the kon turned out to be 219000 M⁻¹ s⁻¹.
For B9, the Kd was 8.5 nM, the koff came to 0.00117 s⁻¹ and the kon is 137000 M⁻¹ s⁻¹.
On the same counts, the results for B10 are 3.94 nM, 0.00247 s⁻¹ and 594000 M⁻¹ s⁻¹.
In the same order, the values of B11 are 52 nM, 0.0373 s⁻¹ and 704000 M⁻¹ s⁻¹.
In the same order, the values of B12 are 12.7 nM, 0.00396 s⁻¹ and 311000 M⁻¹ s⁻¹.

For another experiment, the target named is T2, Canine IL-13 with C-terminal Avi-HIS tag. Kind of experiment: BLI (OCTET HTX); biotin-cIL-13 on SA biosensors, scFv in solution; 1:1 model. The protocol: as §1
B13 displayed a Kd of 26.8 nM, a koff of 0.00466 s⁻¹ and a kon of 174000 M⁻¹ s⁻¹.
B14: the affinity, expressed as Kd, was 9.09 nM; the koff came out at 0.00291 s⁻¹; the kon turned out to be 321000 M⁻¹ s⁻¹.
